Experimental data taken from publication PMC3725402, “Evolution of the key alkaloid enzyme putrescine N-methyltransferase from spermidine synthase” (Frontiers in Plant Science, 2013).

Test system: NCCCCN
Experiment: purified protein
Settings: PMT activity, co-substrate SAM, 20 mM HEPES pH 8.0, 37°C, 2 mM DTT, 1 mM ascorbic acid

Row | Substance | Km
1 | DsPMT (putrescine N-methyltransferase) (Datura stramonium) | 190 ± 27.67 µM
2 | DsPMT (putrescine N-methyltransferase) (Datura stramonium; H108L) | 3130 ± 732.59 µM
